Measured values published in the supplement of paper PMC12764529.
± gives the half width of the 95% confidence interval.

What was measured:
[1] = folding stability dG unfold from trypsin proteolysis; higher = more stable
Procedure, shortened: (§1)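 How resistant each design was to proteolysis was captured as K50, inferred by Bayesian fitting of sequencing counts. Unfolding free energy was then derived relative to a sequence-predicted unfolded-state K50 and a shared folded-state K50, per protease or combined. Digestion used trypsin and chymotrypsin at 11 threefold-diluted concentrations plus a no-protease condition, on mini-proteins under 80 residues without cysteine in a PA-tagged cDNA display construct. Designs were kept only when AlphaFold2 dimer inter-PAE was above 15.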

[2] = folding stability dG unfold (combined trypsin and chymotrypsin); higher = more stable
Procedure, shortened: as §1

[3] = folding stability dG unfold from chymotrypsin proteolysis; higher = more stable
Procedure, shortened: as §1

Sequence	folding stability dG unfold [1] [kcal/mol]	folding stability dG unfold [2] [kcal/mol]	folding stability dG unfold [3] [kcal/mol]
MRLYLVKVEIRREEVDPETGEVREEKLELTVLVREEDEEALEKAEELARKLAEEEGIKEVKVEVVELPAEES [r1_346_TrROS_Hall]	2.3 ± 0.09	2.47 ± 0.25	2.62 ± 0.079
MTKKTVTLPIPEPIRAAIEAGKPLPLEEIVDLVRDVVAKELGFKDVKVLSVEIKPLPNGEIVVEVTVEFPES [r1_290_TrMRF]	3.09 ± 0.28	2.89 ± 0.23	2.79 ± 0.16
MTLLIPLPPAFPDLTPEQVLDLLRELFLSPDEEATAEENPETGSVTVTVRRGDEEYVFTFYPDGYLVLEPGS [r1_131_TrMRF]	2.85 ± 0.04	2.83 ± 0.04	2.799 ± 0.016
MTVTVPPDGTVTITLTDPSGNTYTFTIPVTDPAELRARLEEAIRELFPEFEDIPVRVVAVDGPAVVVEVPLS [r1_389_JUSTAS]	3.02 ± 0.12	3.1 ± 0.086	3.12 ± 0.036
MVAVFEFTFKSEEELLEAAEEVARRLAAELGLPEEELEKIPIEVEVEEIGNEDGEKEYKLTIRFGFPEEFLS [r1_81_TrMRF]	3.51 ± 0.13	3.83 ± 0.13	3.92 ± 0.05
MVLDAGISRKDFINNKPIKVETALKKLAEILGGPNFKPKVKPSKKDYLVAVIELPDGRKLLLKDDKDIKISS [r1_168_TrMRF]	0.514 ± 0.12	0.377 ± 0.14	-0.108 ± 0.14
MVLKVTIEITVTHPANPGKTEKLTIVVEAPTLEEALAAALEEIRRRLGLPPGAKVTVKVTVELVELPEEDLS [r1_149_TrROS_Hall]	4.5 ± 0.18	5.99 ± 0.5	5.63 ± 0.18
NKRIKIFIGGDDPSMAEQIQQWLQDNGYNVEVHVFTSPEDMKKAREWAEQNDIVIVIQVPPPPPKDPGDNNS [r1_497_TrROS]	2.48 ± 0.12	3.3 ± 0.074	3.487 ± 0.024
NWYIDIDEIKEAINDAPPGDEVELPFKFYDPDDGQKFKFRVTVEVNPNGKLTSVRIQHPGSGKPHAEINLKS [r1_165_TrROS]	0.636 ± 0.07	0.982 ± 0.11	1.25 ± 0.13
PEKVILVEVPAGEELTEEELKELAEALGLEVEIEKVKVTVTVTVEVTLPDGKKVKVETTETRTVVLVTVKDS [r1_238_TrROS_Hall]	2.66 ± 0.077	3.16 ± 0.14	3.42 ± 0.14
PFRVMVDLERDPEDGWYKVTIMVQAKDGRPITPELIENAAREIFKQGFPIKKIKLEPYPNGYVHFKIEIPLS [r1_408_TrROS]	2.15 ± 0.035	2.65 ± 0.064	2.88 ± 0.037
PKEIIEFAKKNGFKVKIEPVKVGSEEKAKKLAEEIKKKNNGKVFIIKNPKTGEAVYRIEIYPLKVPKNKKLS [r1_179_TrMRF]	1.37 ± 0.14	1.9 ± 0.43	2.1 ± 0.22
PKIEITRVEYHPNEGYYRVTVKLPGKDVSIYMGPENGMMQVYFPGNGREREFPFDSMDDAVDRAKELLKERS [r1_177_TrROS]	1.33 ± 0.12	1.23 ± 0.28	1.55 ± 0.11
PLTFPALVRNPLEDRWEEVTVTLHPDGTLTVTHRGRPLASVRVVTRPPPEVELVPVRDADGVERLGLRTRGS [r1_496_TrMRF]	0.346 ± 0.071	0.964 ± 0.074	1.21 ± 0.08
PNMKMEWIQIPPGDLNDPVKIEAPLPPGTQIMIWVHDNGNGEWRPIFTVNNDEITIKNLPDADHVWVWVIKS [r1_224_TrROS]	1.83 ± 0.13	2.47 ± 0.28	2.71 ± 0.1
PPPDVPVETETKTSTSTLPDGSRLTTTTTTTRAPNGYYYDTTSVTTTVAPDGTVTTTSTSTTKGPLPAALLS [r1_129_JUSTAS]	1.81 ± 0.12	1.5 ± 0.27	1.51 ± 0.072

Sequence	folding stability dG unfold [1] [kcal/mol]	folding stability dG unfold [2] [kcal/mol]	folding stability dG unfold [3] [kcal/mol]
PPTSPEFRKALENIKKVDIEIEPYPNDGMVRMSIELKFPDKPVEIDIHYQYDPDGKINGMWARLDGKWIPIS [r1_274_TrROS]	1.1 ± 0.091	1.85 ± 0.2	1.99 ± 0.079
PWRPIMITVRANPNLKVDIYPPNGPQEEIPVDSPEDALKKAQKLLPPNYPIMVKVQNEGKPIATFPFWIPPS [r1_276_TrROS]	2.84 ± 0.36	2.61 ± 0.52	2.41 ± 0.14
QRTVYIPIRGMPPDQMVDMIRMALRQAREKGHPNRTIRIWMPGPPEQRERARRYIKELADEPGLNVTIEGWS [r1_387_TrROS]	1.71 ± 0.029	1.84 ± 0.055	1.85 ± 0.08
RKIEINIWRNENHWYVRIKLEHPDGKEQELMFPMDSWDEAREFIRGILANLPPNNVKIEDIEIYPPNGQPIS [r1_169_TrROS]	2.85 ± 0.076	3.87 ± 0.069	4.329 ± 0.023
SAAAAVAAAVAATLEALLPPGYRITAVTAEVAPDGTVTIPVTVEGPDGVPTLVVVTVDLATGEITVTVFGSA [r9_219_TrMRF]	3.17 ± 0.16	4.22 ± 0.22	4.63 ± 0.21
SAAEIDEDGTIRIVLSEEAVKNMSEEELKALAEELAKLLPPGAKVEIKIVKPKPVKEEKKLYDKDGKEVSAG [r14_312_TrROS_Hall]	1.19 ± 0.083	0.788 ± 0.15	0.0971 ± 0.054
SAAMLFEKKTGIKVDVSLVPPEQISQLPPSYTVTPEGDVVVVTTVTTLPLSSYPVKLPPVYDPNTLKLLSAG [r14_126_JUSTAS]	0.146 ± 0.12	-0.0133 ± 0.11	-0.376 ± 0.19
SAAPADNPVLVATLTVTVTRPVSFTSPDGSTGTVPETETRTLVLVADAGNDPEALERALELARRLAETVSAG [r14_830_TrMRF]	2.73 ± 0.076	3.51 ± 0.099	4.04 ± 0.076
SAAPGAEVIEEKEIEVGGYTVTIVYNKDTDTVTIFVRNPDGTITEFTIDADTLEITEVREIKLPPGVELSAG [r14_676_TrROS_Hall]	2.24 ± 0.084	3 ± 0.12	3.35 ± 0.06
SAATLPPGTKVLTLTVTVRVPPGVSVEDLAAALAAELRRRLGPGAKITVTVTYDPETDTLTVTVTVVLPPSA [r9_657_TrROS_Hall]	3.53 ± 0.091	4.38 ± 0.081	4.66 ± 0.078
SAAVITLETENVTATSTLLEDGSVLVDVVEFYEDGYVSVVKAVIGPDGEIKVVERVVFPVPPPVPPPDASAG [r14_42_TrMRF]	2.49 ± 0.094	2.36 ± 0.18	2.3 ± 0.094
SAAVPSDLTLTTLETKKEKFDDNEYTVVKSVLLRPGAPGATVTEYTTVYKGDKVVETKPSERTVSPALLSAG [r14_651_JUSTAS]	-0.897 ± 0.27	-0.0404 ± 0.15	0.209 ± 0.13
SADIKIDDIETQENPDGYEWYMITINFPDPKKFKEKLKKHGVNPEWDPNDPDQVEIWFPREDIQEILKLSAG [r14_777_TrROS]	0.328 ± 0.21	0.665 ± 0.36	0.884 ± 0.28
SADMVMFPMTGEFHFPGWRIKVEITLMFHFTPNGKFGPNFHPMIKIEIVPPPPPPKITEEEADKANENGSAG [r14_442_TrROS]	3.03 ± 0.22	3.59 ± 0.26	4.13 ± 0.19
SADPNYHYKYKIKIEIAWFPPDDLEKLPPGMIMIPFDDHWIMIVIKLEPVEREPPPPPPEYDPETGDWKSAG [r14_126_TrROS]	2.5 ± 0.43	3.23 ± 0.46	3.38 ± 0.17
